Reference: PMC7035337 (2020)

Target: T1, DSP_linker (Homo sapiens (Human), UniProt P15924)
T1 chain: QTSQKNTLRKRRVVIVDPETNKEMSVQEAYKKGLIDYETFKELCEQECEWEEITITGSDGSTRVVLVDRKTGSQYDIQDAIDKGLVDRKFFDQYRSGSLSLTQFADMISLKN
Assay: MST

Kd: > 800 µM
B1: VIM_rod (protein)
chain 1: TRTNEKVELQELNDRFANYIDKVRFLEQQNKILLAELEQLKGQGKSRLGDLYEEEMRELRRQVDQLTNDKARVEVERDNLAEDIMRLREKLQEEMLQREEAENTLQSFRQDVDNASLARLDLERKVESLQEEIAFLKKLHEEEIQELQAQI
chain 2: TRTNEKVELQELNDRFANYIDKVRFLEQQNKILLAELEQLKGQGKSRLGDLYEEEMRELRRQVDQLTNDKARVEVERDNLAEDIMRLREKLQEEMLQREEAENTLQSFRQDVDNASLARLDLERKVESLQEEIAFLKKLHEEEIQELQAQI
